From patent publication US20110243941A1 (published 2011)

Legend:
FcγRIIIA 158V = biological target: T1, FcγRIIIA 158V (human, UniProt P08637 17-208, limits assumed); experiment: BIAcore, ch4-4-20
T1 construct: valine at 158; also called 3aV158; CD16A 158V

[1] = biological target: T2, soluble dimeric FcγRIIB-Fc fusion protein (human, UniProt P31994 43-217); experiment: BIAcore
T2 construct: extracellular domain; also called FcRIIB-Fc; FcγRIIB-G2; not shown: hinge-CH2-CH3 domain of human IgG2
T2 sequence (looked up): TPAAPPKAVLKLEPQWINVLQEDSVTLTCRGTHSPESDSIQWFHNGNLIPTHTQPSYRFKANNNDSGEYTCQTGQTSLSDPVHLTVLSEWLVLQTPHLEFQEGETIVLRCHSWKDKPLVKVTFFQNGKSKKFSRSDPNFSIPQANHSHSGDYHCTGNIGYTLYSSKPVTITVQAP

[2] = biological target: T2, soluble dimeric FcγRIIB-Fc fusion …; experiment: ELISA

T1 sequence (P08637 17-208 F176V limits assumed): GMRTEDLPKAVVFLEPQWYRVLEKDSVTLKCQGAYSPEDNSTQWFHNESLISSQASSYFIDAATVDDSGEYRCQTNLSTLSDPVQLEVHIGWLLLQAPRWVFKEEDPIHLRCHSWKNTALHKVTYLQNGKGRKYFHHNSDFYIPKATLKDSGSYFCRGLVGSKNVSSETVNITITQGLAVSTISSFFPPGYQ

Binder	Koff WT/Mut (FcγRIIIA 158V)	Kd [1] [nM]	koff [1] [s⁻¹]	ELISA, OD [2] [OD]
ch 4-4-20 E293V, Q295E, A327T (antibody) EPKSCDKTHTCPPCPAPELLGGPSVFLFPPKPKDTLMISRTPEVTCVVVDVSHEDPEVKFNWYVDGVEVHNAKTKPRVEEYNSTYRVVSVLTVLHQDWLNGKEYKCKVSNKTLPAPIEKTISKAKGQPREPQVYTLPPSREEMTKNQVSLTCLVKGFYPSDIAVEWESNGQPENNYKTTPPVLDSDGSFFLYSKLTVDKSRWQQGNVFSCSVMHEALHNHYTQKSLSLSPGK	0.86			
ch 4-4-20 Y319F, P352L, P396L (antibody) EPKSCDKTHTCPPCPAPELLGGPSVFLFPPKPKDTLMISRTPEVTCVVVDVSHEDPEVKFNWYVDGVEVHNAKTKPREEQYNSTYRVVSVLTVLHQDWLNGKEFKCKVSNKALPAPIEKTISKAKGQPREPQVYTLLPSREEMTKNQVSLTCLVKGFYPSDIAVEWESNGQPENNYKTTPLVLDSDGSFFLYSKLTVDKSRWQQGNVFSCSVMHEALHNHYTQKSLSLSPGK	1.23			
chimeric 4-4-20 anti-fluorescein antibody, wild type Fc (antibody) chain 1: not shown chain 2: DVVMTQTPLSLPVSLGDQASISCRSSQSLVHSNGNTYLRWYLQKPGQSPKVLIYKVSNRFSGVPDRFSGSGSGTDFTLKISRVEAEDLGVYFCSQSTHVPWTFGGGTKLEIKRTVAAPSVFIFPPSDEQLKSGTASVVCLLNNFYPREAKVQWKVDNALQSGNSQESVTEQDSKDSTYSLSSTLTLSKADYEKHKVYACEVTHQGLSSPVTKSFNRGEC		61.4	0.085	0.4
